Like-named read-outs stand apart in the source and are kept apart here.
How the values were obtained:
[1] = molecular target: Alf1p-myc (S. cerevisiae) (UniProt P53904); experiment: co-IP
[2] = molecular target: Alf1p-myc (S. cerevisiae) (UniProt P53904); experiment: co-IP; remark: listed apart in the source

Chain of UniProt P53904 (P53904 whole entry): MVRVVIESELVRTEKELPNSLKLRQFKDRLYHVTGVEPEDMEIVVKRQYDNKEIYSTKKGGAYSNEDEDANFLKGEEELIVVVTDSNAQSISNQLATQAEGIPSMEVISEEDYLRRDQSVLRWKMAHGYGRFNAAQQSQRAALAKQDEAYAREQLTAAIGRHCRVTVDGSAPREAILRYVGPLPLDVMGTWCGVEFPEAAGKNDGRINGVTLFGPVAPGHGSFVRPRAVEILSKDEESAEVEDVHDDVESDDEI

ratio of α-tubulin to β-tubulin precipitated [1]: 20 fold
ratio of α-tubulin to β-tubulin precipitated [2]: 2 fold
Substance: α-tubulin, endogenous in yeast extract (from UniProt P09733 1-447) (natural protein)
